# Data reported in the supplement of paper PMC10567573.
# B1: SLC19A2 (parent)
# chain: IYPVWTYSYLVLLFPVFLATDYLR
# B2: MIA2 (parent)
# chain: SVIEPVQESSFRSRKIAVEDENDL
# Variants of: B1
# Experiment: protein stability index of a GFP-peptide fusion (GPS, HEK-293T) (PSI 1-6); higher = more stable
# Details: c terminus: a fixed tail appended
# 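Further: lentivirally expressed fusions sorted by FACS into six bins by GFP to DsRed ratio, PSI derived from sequencing read proportions per bin multiplied by bin number.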
row,Variant,protein stability index
1,IHPVWTYSYLVLLFPVFLATDYLR [Y2H],2.29
2,IGPVWTYSYLVLLFPVFLATDYLR [Y2G],1.97
3,IPPVWTYSYLVLLFPVFLATDYLR [Y2P],2.62
4,ITPVWTYSYLVLLFPVFLATDYLR [Y2T],4.06
5,IAPVWTYSYLVLLFPVFLATDYLR [Y2A],3.21
6,IKPVWTYSYLVLLFPVFLATDYLR [Y2K],2.44
7,IIPVWTYSYLVLLFPVFLATDYLR [Y2I],4.61
8,IEPVWTYSYLVLLFPVFLATDYLR [Y2E],2.56
9,IYPVWTYSCLVLLFPVFLATDYLR [Y9C],4.17
10,IYPVWTYSELVLLFPVFLATDYLR [Y9E],2.2
11,IYPVWTYSDLVLLFPVFLATDYLR [Y9D],3.8
12,IYPVWTYSFLVLLFPVFLATDYLR [Y9F],1.75
13,IYPVWTISYLVLLFPVFLATDYLR [Y7I],2.4
14,IYPVWTESYLVLLFPVFLATDYLR [Y7E],3.72
15,IYPVWTWSYLVLLFPVFLATDYLR [Y7W],3.7
16,IYPVWTQSYLVLLFPVFLATDYLR [Y7Q],2.58
17,IYPVWTHSYLVLLFPVFLATDYLR [Y7H],1.33
18,IYPVWTFSYLVLLFPVFLATDYLR [Y7F],2.84
19,IYPVWTNSYLVLLFPVFLATDYLR [Y7N],3.72
20,IYPVWTMSYLVLLFPVFLATDYLR [Y7M],2.32
21,IYPVWTRSYLVLLFPVFLATDYLR [Y7R],3.07
22,IYPVWTTSYLVLLFPVFLATDYLR [Y7T],2.58

# Variants of: B2
# Experiment: as above
# Details: c terminus: a fixed tail appended
row,Variant,protein stability index
1,SVIEPVQESSFRSRKIAVEDENDQ [L24Q],5.51
2,SVIEPVQESSFRSRKIAVEDENDC [L24C],5.32
3,SVIEPVQESSFRSRKIAVEDENDP [L24P],5.42
4,SVIEPVQESSFRSRKIAVEDENDI [L24I],4.66
5,SVIEPVQESSFRSRKIAVEDENDD [L24D],5.26
6,SVIEPVQESSFRSRKIAVEDENDM [L24M],5.31
7,SVIEPVQESSFRSRKIAVEDENDF [L24F],5.19
8,SVIEPVQESSFRSRKIAVEDENDT [L24T],5.57
9,SVIEPVQESSFRSRKIAVEDENDY [L24Y],4.92
10,SVIEPVQESSFRSRKIAVEDENDK [L24K],5.12
11,SVIEPVQESSFRSRKIAVEDENDV [L24V],5.82
12,SVIEPVQESSFRSRKIAVEDENDH [L24H],5
13,SVIEPVQESSFRSRKIAVEDENDR [L24R],5.49
14,SVIEPVQESSFRSRKIAVEDENDE [L24E],5.67
15,SVIEPVQESSFRSRKIAVEDENDG [L24G],5.75
16,SVIEPVQESSFRSRKIAVEDENDA [L24A],5.43
17,SVIEPVQESSFRSRKIAVEDENDN [L24N],5.67
18,SVIEPVQESSFRSRKIAVEDENDS [L24S],5.88
19,SVIEPVQESSFRSRKIAVEDENDW [L24W],4.73
20,SVIEPVQESSFRSRKIAVEDENFL [D23F],3.65
21,SVIEPVQESSFRSRKIAVEDENPL [D23P],4.28
22,SVIEPVQESSFRSRKIAVEDENNL [D23N],5.1
23,SVIEPVQESSFRSRKIAVEDENHL [D23H],4.95
24,SVIEPVQESSFRSRKIAVEDENCL [D23C],4.39

row,Variant,protein stability index
1,SVIEPVQESSFRSRKIAVEDENTL [D23T],4.71
2,SVIEPVQESSFRSRKIAVEDENQL [D23Q],5.83
3,SVIEPVQESSFRSRKIAVEDENIL [D23I],4.64
4,SVIEPVQESSFRSRKIAVEDENVL [D23V],5.1
5,SVIEPVQESSFRSRKIAVEDENWL [D23W],3.86
6,SVIEPVQESSFRSRKIAVEDENEL [D23E],5.54
7,SVIEPVQESSFRSRKIAVEDENML [D23M],4.82
8,SVIEPVQESSFRSRKIAVEDENRL [D23R],5.07
9,SVIEPVQESSFRSRKIAVEDENYL [D23Y],4.24
10,SVIEPVQESSFRSRKIAVEDENLL [D23L],4.63
11,SVIEPVQESSFRSRKIAVEDENSL [D23S],5.2
12,SVIEPVQESSFRSRKIAVEDENGL [D23G],4.72
13,SVIEPVQESSFRSRKIAVEDENAL [D23A],5.26
14,SVIEPVQESSFRSRKIAVEDENKL [D23K],4.95
15,SVIEPVQESSFRSRKIAVEDPNDL [E21P],4.42
16,SVIEPVQESSFRSRKIAVEDGNDL [E21G],5.27
17,SVIEPVQESSFRSRKIAVEDVNDL [E21V],4.9
18,SVIEPVQESSFRSRKIAVEDLNDL [E21L],4.62
19,SVIEPVQESSFRSRKIAVEDTNDL [E21T],5.19
20,SVIEPVQESSFRSRKIAVEDWNDL [E21W],3.85
21,SVIEPVQESSFRSRKIAVEDQNDL [E21Q],5.29
22,SVIEPVQESSFRSRKIAVEDNNDL [E21N],4.74
23,SVIEPVQESSFRSRKIAVEDYNDL [E21Y],4.47
24,SVIEPVQESSFRSRKIAVEDKNDL [E21K],5.05

row,Variant,protein stability index
1,SVIEPVQESSFRSRKIAVEDHNDL [E21H],4.63
2,SVIEPVQESSFRSRKIAVEDSNDL [E21S],5.23
3,SVIEPVQESSFRSRKIAVEDMNDL [E21M],4.32
4,SVIEPVQESSFRSRKIAVEDRNDL [E21R],4.7
5,SVIEPVQESSFRSRKIAVEDINDL [E21I],4.46
6,SVIEPVQESSFRSRKIAVEDEVDL [N22V],5.73
7,SVIEPVQESSFRSRKIAVEDEPDL [N22P],4.96
8,SVIEPVQESSFRSRKIAVEDEWDL [N22W],4.35
9,SVIEPVQESSFRSRKIAVEDEGDL [N22G],5.04
10,SVIEPVQESSFRSRKIAVEDEADL [N22A],5.47
11,SVIEPVQESSFRSRKIAVEDELDL [N22L],4.8
12,SVIEPVQESSFRSRKIAVEDERDL [N22R],5.09
13,SVIEPVQESSFRSRKIAVEDEYDL [N22Y],4.53
14,SVIEPVQESSFRSRKIAVEDEKDL [N22K],5.04
15,SVIEPVQESSFRSRKIAVEDEIDL [N22I],4.89
16,SVIEPVQESSFRSRKIAVEDEFDL [N22F],4.96
17,SVIEPVQESSFRSRKIAVEDEDDL [N22D],5.84
18,SVIEPVQESSFRSRKIAVEDETDL [N22T],5.33
19,SVIEPVQESSFRSRKIAVEDEEDL [N22E],5.08
20,SVIEPVQESSFRSRKIAVEDESDL [N22S],3.82
21,SVIEPVQESSFRSRKIAVEDEHDL [N22H],5.43
22,SVIEPVQESSFRSRKIAVEDEMDL [N22M],4.74
23,SVIEPVQESSFRSRKIAVEDECDL [N22C],5
24,SVIEPVQESSFRSRKIAVEDEQDL [N22Q],5.77
